According to patent publication CN109897111A (HANGZHOU HANSI BIOLOGICAL MEDICINE CO LTD, dated 2019):

Key:
hPD-1-hIgGFc抗原 [1] = biological target: T1, hPD-1-hIgGFc抗原 (human, UniProt Q15116 25-167, limits assumed); assay: competition ELISA, hPD-1-hIgGFc coated, competitor PDL2-his tag 0.6 μg/ml
hPD-1-his抗原 = hPD-1-his抗原 (human, UniProt Q15116 25-167, limits assumed); assay: ELISA, hPD-1-his coated 0.25 μg/ml
hPD-1-hIgGFc抗原 [2] = biological target: T1, hPD-1-hIgGFc抗原; assay: competition ELISA, hPD-1-hIgGFc coated, competitor PDL1-mIgG2aFc 0.6 μg/ml

T1 sequence (Q15116 25-167 limits assumed): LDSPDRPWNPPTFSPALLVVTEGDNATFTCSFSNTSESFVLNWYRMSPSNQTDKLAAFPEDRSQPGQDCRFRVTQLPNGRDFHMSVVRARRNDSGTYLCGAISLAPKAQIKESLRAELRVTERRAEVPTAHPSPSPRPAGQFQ
Sequence of hPD-1-his抗原 (Q15116 25-167 limits assumed): as above

B1: 人源化抗体H8 (抗PD-1的IgG类抗体) (antibody, V domains shown)
VH: EVQLVQSGGGLVQPGGSLKLSCAASGFTFSSYGMSWVRQAPGKGLDWVATISGGGRDTYYPDSVKGRFTISRDNSKNNLYLQMNSLRAEDTALYYCARQKGEAWFAYWGQGTLVTVSA
VL: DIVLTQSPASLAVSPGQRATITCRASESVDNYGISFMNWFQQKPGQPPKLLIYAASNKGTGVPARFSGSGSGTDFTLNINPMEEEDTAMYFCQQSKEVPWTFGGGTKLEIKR
notes: HX009-5 is H8 with linker-SIRPA added to the C-terminus of the heavy chain, and both share the light chain; also called HX008
IC50 (hPD-1-hIgGFc抗原 [1]): 2.7 nM | EC50 (hPD-1-his抗原): 0.05 nM | IC50 (hPD-1-hIgGFc抗原 [2]): 1 nM
